Source: paper PMC10704431, “A complex with poly(A)-binding protein and EWS facilitates the transcriptional function of oncogenic ETS transcription factors in prostate cells” (The Journal of Biological Chemistry, 2023)

Target: T1, His-PABPC1 (UniProt P11940 1-636)
T1 construct: also called purified His-PABPC1; source: E. coli BL21 (pET28a), purified with nickel-nitrilotriacetic acid beads
Assay: pull-down; purified GST-tagged EWS fragment on glutathione magnetic beads; purified His-tagged protein (PABPC1 or ERG) added, no third protein; immunoblot
Conditions: both partners purified

T1 sequence (P11940 whole entry): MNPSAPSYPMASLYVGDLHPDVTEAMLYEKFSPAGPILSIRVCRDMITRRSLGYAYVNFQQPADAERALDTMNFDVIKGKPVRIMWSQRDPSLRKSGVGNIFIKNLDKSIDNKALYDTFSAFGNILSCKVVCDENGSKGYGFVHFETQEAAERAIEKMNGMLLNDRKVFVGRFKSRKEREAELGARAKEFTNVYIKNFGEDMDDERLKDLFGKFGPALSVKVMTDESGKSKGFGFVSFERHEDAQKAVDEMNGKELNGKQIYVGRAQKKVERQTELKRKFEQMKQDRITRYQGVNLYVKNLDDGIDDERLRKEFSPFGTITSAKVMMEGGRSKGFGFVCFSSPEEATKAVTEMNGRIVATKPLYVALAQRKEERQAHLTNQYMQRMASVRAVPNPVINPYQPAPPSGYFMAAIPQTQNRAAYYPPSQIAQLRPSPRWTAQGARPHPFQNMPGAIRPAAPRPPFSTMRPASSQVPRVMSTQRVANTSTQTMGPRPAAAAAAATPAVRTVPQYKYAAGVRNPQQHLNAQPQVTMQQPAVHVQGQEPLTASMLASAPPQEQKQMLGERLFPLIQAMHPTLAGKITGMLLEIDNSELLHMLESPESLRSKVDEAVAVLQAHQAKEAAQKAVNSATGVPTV

B1: GST-EWS 356 to 656 (ctEWS) (domain or fragment, UniProt Q01844 356-656, looked up)
chain: EDSDNSAIYVQGLNDSVTLDDLADFFKQCGVVKMNKRTGQPMIHIYLDKETGKPKGDATVSYEDPPTAKAAVEWFDGKDFQGSKLKVSLARKKPPMNSMRGGLPPREGRGMPPPLRGGPGGPGGPGGPMGRMGGRGGDRGGFPPRGPRGSRGNPSGGGNVQHRAGDWQCPNPGCGNQNFAWRTECNQCKAPKPEGFLPPPFPPPGGDRGRGGPGGMRGGRGGLMDRGGPGGMFRGGRGGDRGGFRGGRGMDRGGFGGGRRGGPGGPPGPLMEQMGGRRGGRGGPGKMDKGEHRQERRDRPY
notes: also called GST-ctEWS; C terminus of EWS; source: E. coli BL21 (pGEX-6p-2), purified with magnetic GSH beads
- binding result: binds
